Data as given in patent US20230331828A1 (published 2023).
Where “and” joins values, the source holds several entries; their conditions need not be identical. Identical values can stand only once.

How the values were obtained:
[1] = target: soluble Aβ (Aβ42) aggregates (human, unlabeled, biotinylated or 9:1 unlabeled:biotinylated (position of biotin not stated)); test: cell-based or functional assay
AβpE3-42 = target: T1, AβpE3-42 (human, N-terminal pyroglutamate at position 3 of Aβ); test: direct binding to AβpE3-42 (FIG. 27)
T1 construct: also called pyroglutamate-3 Aβ; pyroglutamate-modified Aβ
T1 sequence (peptide, as listed by the source): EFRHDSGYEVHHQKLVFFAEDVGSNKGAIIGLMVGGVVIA

Aβ1-42 fibrils [2] = target: T2, Aβ1-42 fibrils (human); test: direct binding to fibrillar Aβ1-42 (FIG. 27)
T2 construct: Aβ1-42 polypeptide, HFIP-treated, incubated in 10 mM HCl at 37 C for 24 h, pelleted fibrillar fraction, sonicated; Multimeric fibril; also called fibril Aβ42; fibrillar Aβ42
T2 sequence (peptide, as listed by the source): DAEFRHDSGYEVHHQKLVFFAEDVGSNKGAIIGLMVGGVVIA

Aβ1-42 fibrils [3] = target: T2, Aβ1-42 fibrils; test: SPR (BIAcore T200); Aβ1-42 fibrils immobilized, antibody as analyte; global 1:1 fit
Protocol: (§1) Fibrils were immobilized on sensor chip CMS (GE Healthcare Life Sciences) via amine coupling to a level to ensure a maximum binding of analyte of approximately 50 RU. […] Regeneration of the chip surface was accomplished by 2 short injections of 10 mM Glycine-HCl pH 1.7. Data was blank subtracted to both a sensor not containing ligand and 0 nM analyte concentration. Analysis was performed using a global 1:1 fit with BIAcore Insight Evaluation software (v2.0) with bulk refractive index set to zero RU.

Aβ1-28 [4] = target: T3, Aβ1-28 (human); test: SPR (Biacore T200); antibody captured by anti-human Fc, Aβ1-28 as analyte; global 1:1 fit
T3 construct: Bought peptide (Bachem); also called Aß1-28 monomer; A131-28
T3 sequence (peptide, as listed by the source): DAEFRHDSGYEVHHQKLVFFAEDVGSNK
Protocol: (§2) Determination of binding affinity of anti-Aß candidates to Aß₁₋₂₈ (Bachem, Torrance, CA) was performed using a Biacore T200. Anti-human Fc antibody was immobilized to a CM3 sensor chip (GE Healthcare Life Sciences) via amine coupling and used to capture Aß antibodies.
(§3) Various concentrations of Aß₁₋₂₈ (analyte, ranging from concentrations of 100 nM down to 0.39 nM, serial diluted 2-fold each dilution step) were passed over the captured ligand at 50 μl/min in running buffer (HBS+0.05% P-20, 1 mg/mL BSA) for 240 s association time and 900 s dissociation time. Data were blank subtracted to both an irrelevant sensor not containing ligand, and buffer runs containing 0 nM analyte concentration. Analysis was performed using a global 1:1 fit with Biacore Evaluation software (v3.0).

Aβ1-28 [5] = target: T3, Aβ1-28; test: SPR (Biacore T200); antibody captured by anti-human Fc, Aβ1-28 as analyte; global 1:1 fit; apparent KD
Protocol: as §2, §3

Aβ1-42 fibrils [6] = target: T2, Aβ1-42 fibrils; test: SPR (BIAcore T200); Aβ1-42 fibrils immobilized, antibody as analyte; global 1:1 fit; apparent KD (avidity)
Protocol: as §1

Aβ1-42 fibrils [7] = target: T2, Aβ1-42 fibrils; test: competition ELISA; plate coated with fibril Aβ42; competitor hBP-biotin; IC50 of test divided by IC50 of hBP
Protocol: To generate fibrils, Aβ 1-42 polypeptides, previously treated with HFIP (hexafluoroisopropanol) and dried, were resuspended in DMSO to 5 mM, then further diluted to 100 uM with 10 mM HCl. Samples were incubated at 37° C. for 24 h, and then centrifuged to separate soluble and fibrillar species. The pellet was the resuspended in 1×D-PBS to the original volume and sonicated before use.
Plates were coated with 0.5 mg/ml of fibril Aβ 42 and blocked, e.g., with 1% BSA/PBS. […] 100 ul of GE Streptavidin HRP diluted 1/10,000 was then added and incubated for 30 minutes. Plates were then washed 6× with TTBS. Thermo Fisher o-phenylenediamine dihydrochloride (OPD) substrate was prepared fresh per manufacturers direction, and 100 ul per well was added. The reaction was incubated for 15 minutes and the reaction stopped with 50 ul 2N H₂SO₄.

[8] = target: T4, Aβ pathology (plaques) in human AD brain tissue (human, UniProt P05067 672-713); test: IHC on frozen human AD brain sections, brain AD 11-97; % stained area against antibody concentration (0.03-9 µg/ml)
T4 construct: Native tissue deposits, heterogeneous; also called tissue Aβ pathology; Aβ plaques
Protocol: (§4) Tissue Sectioning and Fixation. The unfixed frozen brain tissue samples were embedded in Tissue-Tek OCT (Sakura Finetek) in cryomolds dipped in a mixture of 2-methylbutane and dry ice slurry (−60° C.) then stored at −80° C. until sectioning. Serial 10 μm thick cryosections were generated using a Leica 3050S cryostat. The sections were directly thaw-mounted on positively charged glass slides and were stored at −20° C. until use. Prior to immunohistochemistry IHC procedures, the slides were immersed in 10% neutral buffered formalin solution for 10 minutes at 4° C., rinsed in PBS, then incubated for an hour at 37° C. in a glucose oxidase solution (20 mM beta D(+) glucose, 2 mM sodium azide, and 2 units/mL glucose oxidase in 1×PBS). The slides were rinsed 3 times for 5 minutes in PBS before they were transferred onto staining racks for processing in an automated stainer.
(§5) Antibody biotinylation. The humanized IgG antibodies were biotinylated using a non-covalent method, by means of incubation with a biotin-conjugated goat anti-human monovalent fab fragment (Jackson ImmunoResearch) in a ratio of 1:4, for 1 hour at room temperature. Unbound excess Fab was absorbed by pre-incubation with human serum for an additional hour before use. The freshly prepared antibodies were then loaded into the stainer for immediate application to tissue sections.
(§6) Immunostaining. The staining was performed in an automated Leica Bond Rx Stainer (Leica Biosystems), using the Bond Research Kit (DS980, Leica Biosystems) and the avidin-biotin amplified immuno-peroxidase detection system. Each biotinylated anti-Aβ antibody, or a human IgG control, was applied to the sections, at specified concentrations, for one hour and the staining was visualized using the avidin-biotin amplification system (ABC Elite Standard, PK-6100; Vector Laboratories). Hematoxylin counter-staining of nuclei was subsequently applied to sections before dehydration in an ascending series of alcohols, clearing in xylene, cover-slipping, and air-drying.

[9] = target: T4, Aβ pathology (plaques) in human AD …; test: IHC on frozen human AD brain sections, brain AD 13-75; % stained area against antibody concentration (0.03-9 µg/ml)
Protocol: as §4, §5, §6

[10] = target: T4, Aβ pathology (plaques) in human AD …; test: IHC on frozen human AD brain sections, brain AD 14-11; % stained area against antibody concentration (0.03-9 µg/ml)
Protocol: as §4, §5, §6

[11] = target: T4, Aβ pathology (plaques) in human AD …; test: IHC on frozen human AD brain sections, brain AD 15-19; % stained area against antibody concentration (0.03-9 µg/ml)
Protocol: as §4, §5, §6

B1: h2731 (antibody, V domains shown)
VH: EVQLLESGGGLVQPGGSLRLSCAASGFTFSNYGMSWVRQAPGKGLEWVASIRSGSGRTYYSDNVKGRFTISRDNSKNTLYLQMNSLRAEDTAVYYCVRYDHYSGSSDYWGQGTLVTVSS
VL: DVVMTQSPLSLPVTLGEPASISCKSSQSLLDYDGKTYLNWLLQKPGQSPQRLIYRVTNRDTGVPDRFSGSGSGTDFTLKISRVEAEDVGVYYCWQGTHFPRSFGQGTKVEIK
notes: Humanized IgG mAb; Only the variable domains are tied to the construct
blockade of binding of soluble Aβ to rat hippocampal neurons at 1:50 molar mAb:Aβ42 ratio [1]: > 90% | binding result (AβpE3-42): no binding (tested: 100 ng/ml) | EC50 (Aβ1-42 fibrils [2]): 0.0081 µg/mL and 0.054 nM | koff (Aβ1-42 fibrils [3]): 2.62e-05 s⁻¹ | kon (Aβ1-42 fibrils [3]): 372000 M⁻¹ s⁻¹ | koff (Aβ1-28 [4]): 0.000595 s⁻¹ | kon (Aβ1-28 [4]): 119000 M⁻¹ s⁻¹ | Kd (Aβ1-28 [5]): 5.01 nM | Kd (Aβ1-42 fibrils [6]): 0.0704 nM | IC50 ratio (test:hBP) (Aβ1-42 fibrils [7]): 0.61 ratio | Area Under Curve [8]: 50.6 | Area Under Curve [9]: 150 | Area Under Curve [10]: 149 | Area Under Curve [11]: 52.7
